Source: the DeepSol protein solubility set

Test: soluble on expression in E. coli; label from the status in PepcDB or PDB records

| Sequence | soluble on expression in E. coli |
| --- | --- |
| VEAHPSLTLFSQLRIEHEDMAIAEDDWAWLRHKGHLRLGAALDETSPFNVRLDDENYEGITADVATLVGQLLGMRIKVVSFDTHADAVAALAAGKIDLLGSHYSSAGDSSLVLSQPYARDRLAVFKRMGEKRNSPEDLAGLSVAVAREHVGELRQRFPRARFVVFGSHDEAVAAVAFGHTDLYLDDVLSAYHRINRSYYGYVRFERFADARLEGGYGFLLRRGDTNLLRVVNSAIGAINQDRLESIARRWVGSGSLPTGQRIALTPQESRWIARHPVVRLVINDDLAPLAFFNSDETFSGIASDLLDMISRRTGLHFQVTPRSGGFPEQIGVLARKEADLAIMSRSSKREEMLRFTRSFLSTSYVLVTRADDKGRAEIPGSLDGKRIAIPAGHVGMQQVRERYPQASMVEVGVALDAMNLVYEGRADAAVVPLVTARYYIVRLFRERLAIADLVPIGAATAHFAVRRGDAELQSILDKALLSISPDDLSDIVNRWRSPPGMSGQT | soluble |
| MNVSEALKGALPNFIPGLGTLYVDPSTLPEGPFLAYDRAGNLVKVVFMVPLKKLNESHKYVDIGTKTLRALGITRIDHVNLIPSGPHPGVSEPHYHIELVLVSVDQERKVLEGEPY | soluble |
| MDTQKLIEVLAREVLKEIAKRENQKLSENNEIISKKSVVTAFLGNDEVLKDELKKEASFMENIKLDSTWEEIGQCENKKRLVVSTLGINELIELSQGRKSVITEFLFNDGEVVLVEEGLEYKKYTKPAALINLYDGYLDKVREFGIKVVKRTEVKNVFCTKEKVYLKGLVTERRLRKLKLKNQTLEVDAKSKITSLAMDYIKENSIELCYERRQ | not soluble |
| GSHGGSMKAANASSAEAYRVLSRAFRFDNEDQKLWWHSTAPMFAKMLETANYTTPCQYQYLITYKECVIPSLGCYPTNSAPRWLSILTRYGTPFELSLNCSNSIVRYTFEPINQHTGTDKDPFNTHAIWESLQHLLPLEKSIDLEWFRHFKHDLTLNSEESAFLAHNDRLVGGTIRTQNKLALDLKDGRFALKTYIYPALKAVVTGKTIHELVFGSVRRLAVREPRILPPLNMLEEYIRSRGSKSTASPRLVSCDLTSPAKSRIKIYLLEQMVSLEAMEDLWTLGGRRRDASTLEGLSLVRELWDLIQLSPGLKSYPAPYLPLGVIPDERLPLMANFTLHQNDPVPEPQVYFTTFGMNDMAVADALTTFFERRGWSEMARTYETTLKSYYPHADHDKLNYLHAYISFSYRDRTPYLSVYLQSFETGDWAVANLSESKVKCQDAACQPTALPPDLSKTGVYYSGLH | soluble |
| MSLIGITQRLICNDSYHEKRECLALDWGKLFNKDLFKNFTPLPLSYEIDFSYYKHLIKAVILSGGNDLSFYSPNVLSKKRDLYEKQVIEICLEEKIPLLGICRGAQMIAHYFNSHISPCENHIGKHEVFFSKEKFISNSFHNFAIEKLGEDLVELCLAKDNTIEAFKHKYENIFGIMWHIERENGLNNIQILKEWFSLIKEGHHHHHH | not soluble |
| MASDPITTQEFSPRQNAVLDQALRLLVEGGEKALTTSGLARAANCSKESLYKWFGDRDGLLAAMITFQQSKVRTFEKAGDRVSAPQLADHLEVFAHDLLDVLAGDVSLALNRLAIGQASRDGSKLGDLLLERGRRQIDRRARGLIEAGRRSGYLRFDDAEEAYRSFYGLIVSDLHVRMLLGEAPDKDFSARAKKAVVAFLTLYGTEKVHSELGGKVA | soluble |
| MSLTALSALIEQKLQSLGTILCQSFPELSPEKIHEAIQQNSNHPELPVYQLGYAIAMSDFVEKVLQKYPHLVKQWWEKSPCFADCTAYIERLNKELANVHDETALYQTLRQFRNIEMAKLSFCQSLNLATVEEIFVQLSQLAESLIIAARDWLYHQACAEIGTPMDEQGNPQQLYILGMGKLGGFELNFSSDIDLIFTYPSQGETSVENTNARRSVDNGKFFTRLGQRLISALDEFTSDGFVYRTDMRLRPFGDSGVLVLSFSAMEQYYQDQGRDWERYAMIKGRVLGAQTKDPNVSKLKKMLRPFVYRRYIDFSVIQSLREMKGKIEREVRRRGLKDNIKLGAGGIREVEFIVQVFQLIRGGREINLQQHSLLKILPEITKLRLITEQQFHDLRESYIFLRRVENILQAINDQQTQTLPTDEIDQIRLVEACKTFTCLNENNQTIEKHYPIENWDDFYRTLQQKQEKVRAVFTQLIGDEQDESSQTDSQWQDFLEADFEDIEQTLLESSVSENNIDEVLEKLAQFKDGLNHRVIGSRGRDVLSHLMPTVLALIFEQENYRTLLPRILNIIEKISSRTTYLELLLENPRALQQVIELCAQSQLISEQLAHYPILLDELLNTEALRHPLPFTQYPAELHQYLLRLPPDDEEQLIDALRQFKQATLLKVAAADILGALPVMKVSDHLTYLAEAIIEVVVNLAWKQVSSRFGVPEHLQNNEKGFLVIGYGKLGGIELGYKSDLDLVFLYDAVESQTTGGKKVIDSNQFYLRLAQKIVSIFSINTSAGVLYEADMRLRPSGDAGLIGCSLSAFSHYQLNDAWTWEKQALVRARPVFGESSLKAKFEHIRQQVLSASRDIEQLKQDVVEMRKKMFAHLSHSKHSEFNLKTDRGGITDIEFIAQYLMLANAPKKPQLTKWSDNVRIFDDMAEAKIISQTDCDTLKQCYVDLRNTIHHLNLLGKSSVVEDSEFVKERSFIQAFWDRLFVSEGHHHHHH | soluble |
| MAHHHHHHMQRPTTARYRGRRESSAASRKLAKKPHSLMDELPPCPPSPYKWKQHRQHDGHHISVTAAFIRGRRNMRVGAAAISAIAASPFPVDGATKAAKSSPAFPMRALVVAGTHDSDAVEGNNDDEAIFELFFREAQLHYHISAEENMRNHLLAGEEVAFTNLMIEALQARAELLAGDEAAELVIRDAQKRAQERQAMMKEIEKTVALRLHDERMAQLLAMEFEALLPAHGAGCERILREEAADLGEVFRWHKENRPLGAGCFIEAPVEDSRLTDARRGTGAAKFLESRLALAKGSRRASCARSSRVYLAQLLQKGTSSRCSAAALGPLAVAAGEAPASLLDGTLPVMDEALFQEEGRARLQAAKDQRYLALRGLRAVSDIRQAAAAAREKVLAEEAMCWMQIARLEVDGIYAAQEATRERKKREASADAATTHRAAQKKEVKERLLRQRGRPVPEPDNSAGGDARVQPRISGKSTEEGAQPPKDQAAITEAGALEQPSPRSSSSTVPDNSPLCGALAEGASTTAEANVDAVDELAYLRFVTGEITDPDACKQLSALVSSEVDEEVEKAV | soluble |
| MFDIGFGELLLVMVLGLIVLGPERLPVAVRTVASWIRTLRSLASTVQNELSQELKLQEFQESLKKVEKASLQNLSPELKASMDELKDAAEAMKRGYTETPSPQKSDDPKKSGDHSATVEPQSNIPLNDPEAAYDGVIEAETAVRPADSQQKPENAAVAENHNDGRHATSDEAVGNNNVKPEQSQPSAASARQPSDSRLEHHHHHH | not soluble |
| MSTQTVTIKSLGAQGDGIAHCPDGPVYVPFALPGETVAIAKVKDQGTVMSITEASADRRDPVCRHFGPEGINGTCGGCSLQHLADQPYHAFKRELVVSALRSKGLTPPVDDLVICRPGERRRAVFAARKTEKGLLLGFSQANSHHIVAIEECPVTSPGIVSRFDAIRAIGLSMVANAEPFRITVLETLSGLDISVEGIKSVNDKQRRTLTETVLAMRGIARVSLSGEILIEPQKPIIEFGGIPVSPPAGGFTQATKQAEDAMAELMLAHVGKSKRIADLFCGSGTFALRLARIGRVHAVEAEDKALKALDFAARNTQGLKPVSVEKRDLFRRPLMTSELKNYDAVVFDPPRAGAEVQCKELARSTVKKIVAVSCNPLTLARDLAILTEGGYRVTRVTPVDQFLWSPHVEAVAVLEK | not soluble |
| MSLYSTDSGNLFHAGRILVVLVGLPATSKTLLSVAITRYTRWLGVRTKSFHFSEYKESAKNIPSDYFCVVPTSKEGVAFVEKLRMQMLNDILAFFNDLSGQLAIYDALNIRKIDRKNLETTFSEIGVKVLFIESIVSDQEIMNRNIALALESNDYKGLSTDEAIDEYMRRLSVNEPYYEMMTHDEELSYIKYINLGKQIIVKDNIHGYLVNKIVFFLMNLRQKKGCVYFARCGTSDKDNYIHDEELNEEGIHYSQVLKDFVLQRIKQKRQAKKNSDSLVEVIDGSHDEDLKTSLIVWTGPRKRTHDTALFFSKEGIKVQQRSELRQLNPGSIADLTDQQIMDKFPSEYKESLKDPYHFRFPRAESYHDLAVRMEPLLLEMEHTSKDILIIAHESTLRVLYGYLMACTCVELPNLNFTRDKLVEISFSPFCNTVELLNIPLTEGHHHHHH | soluble |
| MLIRYRKNYEKIAMGLLSFMPTEKDLKRLQQTMKQYETNNDWQLFLWKEGDDIVGIIGVLLRAPDVVEIQHISVNPSHRHQGIGKQMVKALKEVYPGRRLCANEWTASFFDKCHACNE | not soluble |
| MDMNSFSPMMPTSPLSMINQIKFEDEPDLKDLFITVDEPESHVTTIETFITYRIITKTTRGEFDSSEFEVRRRYQDFLWLKGKLEEAHPTLIIPPLPEKFIVKGMVERFNDDFIETRRKALHKFLNRIADHPTLTFNEDFKIFLTAQAWELSSHKKQGPGLLSRMGQTVRAVASSMRGVKNRPEEFMEMNNFIELFSQRINLIDKISQRIYKEEREYFDEMKEYGPIHILWSASEEDLVDTLKDVASCIDRCCKATEKRMSGLSEALLPVVHEYVLYSEMLMGVMKRRDQIQAELDSKVEVLTYKKADTDLLPEEIGKLEDKVECANNALKADWERWKQNMQNDIKLAFTDMAEENIHYYEQCLATWESFLTSQTNLHLEEASEDKP | soluble |
| MGFADFFKNFKINKLRTAPSKEEQPSHWVKCPKCYALMYHKEVFSKYSVCLKCHYHFRMKAAERIEFLCDVGSFEEFDKHLRPNDPLNFVDKESYKQRIKKYEKRTNRPSSVISGEAKINRMPLQIVVFDFSFMGGSLGSVEGEKIVRAINRAVAKREALLIVSASGGARMQESTYSLMQMAKTSAALNRLSEAKLPFISLLSDPTYGGVSASFAFLGDLIIAEPGAMIGFAGPRVIKQTIGADLPEGFQTAEFLLEHGLIDMIVHRKDLKKTLSDLIAMMTHKTSKIFLEHHHHHH | soluble |
| MEALRSAPRAAHFLPMELQSSGERSPPREGAPVGTGATAGETPSAAPSGTPLWIPPRLATLDEVTLCHNIHRYRCFIEEGTALLPPLKTDVYCNGKTSSIATRLSVGAVVDAARRALSGSPAFAFCLVRPPGHHASADTPSGFCLVNNVAIAAMQLLQDWHVKYDCGVGGSRSVPSEERDIPERPRIAIVDIDVHHGEGTQSFVEVEPQLLYLSLHRYDRGSFYPCDPAGATSYVGQHRNICNVAVDTAATDPARCEEVISDMLFARVVDDVFLPRLEQFHPNIILLSLGFDAAHGDPLGRMAVEGGFAYVVRALKRFCLQSQGTIGLVAVLEGGYSPEGVSRGVVSVAHALCYPFDDVAVVNYARLRTPKTWMELRSRLSRRMEVRTDETGGATSLSSGLSSQGLGDATSTERAIAD | not soluble |
| MGSDKIHHHHHHMDKRIFGIETEFGISYSSPDSRPLAPEEVARYLFRKVVSWGRSSNVFLTNGSRLYLDVGSHPEYATAECDDLGQLIAHDRAGELILDDLVDEAQERLAAEGFNGTVYLFKNNTDSAGNSYGSHENYLIPRRGEFSRLAEILIPFLVTRQLIAGAGKILKTPHGATFAFSQRADHIWEGVSSATTRSRPIINTRDEPHADAEFYRRLHVIVGDSNMSETTALMKVGTVDLILRMIEAGVIMRDMRMENPIRSIREISHDLSGRALIRLANGRQLTALEIQREYLNKVTSFVAENGAHNQHVPLILDLWERTLTAIESGDTSTIDTEIDWAIKKKLMDSYRKRHGLGLDAPRIAQLDLTYHDISRTRGLYYLLQSRGAVRRVVDDTAVKDAVDAPPQTTRAKLRGDFVRRAQELGRDYTVDWVHLKLNDRAHQTILCKDPFRNVDERVDALLDSMG | not soluble |
